Legend:
[1] = target: iC3b (UniProt P01024); assay: SPR; C3b deposited on a CM5 chip (amine-coupled seed, then convertase-mediated deposition to about 5000 RU), iC3b and C3dg made from it on the chip; αI domains injected as dilution series, 120 s; Biacore T200, 25 °C; HBST (10 mM HEPES, 150 mM NaCl, 0.005% Tween-20, pH 7.4) with 1 mM MgCl2; Langmuir 1:1 fit, KD calculated
[2] = target: ICAM-1 (recombinant, Sino Biological 10346-H03H) (UniProt P05362); assay: SPR; competitive: αI domains at 5 µM preincubated with simvastatin (3-100 µM), injected over immobilised iC3b or ICAM-1; HBST with 1 mM MgCl2 and 5% DMSO; signal as percent of the non-inhibited signal
[3] = target: iC3b (UniProt P01024); assay: as above

ICAM-1 (recombinant, Sino Biological 10346-H03H), sequence (P05362 28-480): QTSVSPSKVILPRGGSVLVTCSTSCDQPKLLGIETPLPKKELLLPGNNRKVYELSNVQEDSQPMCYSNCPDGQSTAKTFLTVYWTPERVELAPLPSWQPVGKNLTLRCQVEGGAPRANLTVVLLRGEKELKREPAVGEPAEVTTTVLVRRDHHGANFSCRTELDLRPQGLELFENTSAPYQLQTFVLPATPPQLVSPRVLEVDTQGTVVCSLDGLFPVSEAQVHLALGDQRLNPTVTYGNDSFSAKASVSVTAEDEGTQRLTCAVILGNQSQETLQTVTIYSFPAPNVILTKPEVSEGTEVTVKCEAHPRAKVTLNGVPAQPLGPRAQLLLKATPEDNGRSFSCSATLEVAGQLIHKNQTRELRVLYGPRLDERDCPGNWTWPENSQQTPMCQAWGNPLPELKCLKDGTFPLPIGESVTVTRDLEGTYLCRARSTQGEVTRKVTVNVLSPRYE

Row | Kd [1] | residual binding activity with simvastatin (percent of the non-inhibited signal) [2] | residual binding activity with simvastatin (percent of the non-inhibited signal) [3] | Substance
1 | 15 µM | – | – | CR3 αMI domain, wild type (WT) (from UniProt P11215 146-334) (domain or fragment)
2 | – | 83% | – | LFA-1 αLI domain, high-affinity (HA) variant p.K312C/K319C (domain or fragment)
3 | 1.8 µM | – | 77% | CR3 αMI domain, high-affinity (HA) variant p.I332G (from UniProt P11215 146-334) (domain or fragment)

Source: article PMC11853025
